± gives the uncertainty stated by the source.

This data set in a line: amyloid nucleation score (Sup35N fusion, yeast selection) (log enrichment); library NNK2; higher = more nucleation; inactive = no reads after selection. The essentials:
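The nucleation score is a DiMSum log enrichment of output over input reads, centred on the mode score of non-aggregating sequences. Sequences under 100 input reads were excluded, and reads came from Illumina sequencing of plasmid inserts. Psi-negative yeast expressing Sup35N fused to peptides of 20 random codons were induced with 100 μM copper sulfate for 24 hours and grown 7 days at 30°C on medium lacking adenine and uracil. Random libraries had three technical output replicates.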
Substance SGWSNFVLCILHTTTGMKRH registered an amyloid nucleation score of 3.95 ± 0.071.
The same measure for SGYDFHVRMTCCIWH: 9.166 ± 0.04.
Turning to SGYFFPRL, the amyloid nucleation score is -0.73 ± 1.1.
Then SGYGAAITVNFDITEHGGM, with 5.06 ± 0.066.
Then SGYSPSLFCKVFPWANELCS, with -1.12 ± 1.1.
SHEGGD: the amyloid nucleation score was -0.856 ± 0.34.
As for SHFGLDADWVEVPYYRFFRY, the amyloid nucleation score was -0.8 ± 1.
Regarding SHGAWTLFLSVIFCSAQYR, the amyloid nucleation score was found to be 4.06 ± 0.087.
The same measure for SHGWGTAAVWNIAVCRRSLG: 0.129 ± 0.39; for SHLCQLLDDAGLTEQNNSSG: 0.234 ± 0.57.
The same measure for SHSSMVLRLVRVWCVCRG: 0.342 ± 0.4; for SHSVRTMFPGGVNPRNIRGY: 0.548 ± 0.64.
The substance SHSYFSYTFQILLCEAVRGG registered an amyloid nucleation score of -0.124 ± 0.76.
The substance SHSYGTER showed an amyloid nucleation score of 4.64 ± 0.074.
Then SHVTGR, with 0.602 ± 0.34.
The same measure for SHYCGLVCLELEIWLYP: 1.31 ± 0.18; for SIAKFGWTIGRLGYIHIFIL: -1.16 ± 1.1; for SIDEVGTANVPHGDW: 0.741 ± 0.25.
Then SIFSIFWYV, with -0.744 ± 0.5; and SIGGMMVPLISLKYSY, with -0.784 ± 1.1; and SIGHNSSF, with 0.117 ± 0.49.
SIIVLRLLY: the amyloid nucleation score was 0.523 ± 0.51.
With SIKPVLVSDFEKAV, the amyloid nucleation score worked out at 0.661 ± 0.49.
Then SILDVCVSVT, with -0.641 ± 0.55; and SILGMG, with -0.555 ± 0.28; and SILHSPLSVVYASNISCLF, with 7.169 ± 0.066.
Then SILSIYFDPYGCRL, with 0.164 ± 1.1.
In turn, SILSRCIRQVLFREPDVWRS gave an amyloid nucleation score of -0.32 ± 0.48.
In turn, SILYVSRLTFR yielded an amyloid nucleation score of 0.218 ± 1.1.
Then SISRFSFIRNTVGRD, with 0.637 ± 0.37; and SISVAVRSCQVTVPGKCDCA, with 7.756 ± 0.035; and SIVFFNRC, with 7.562 ± 0.05.
For SIVKLGVYHDLPA, the amyloid nucleation score amounted to 0.721 ± 0.66.
The same measure for SIVSHKVITISMFVI: 4.5 ± 0.077; for SIYVSALDGMYSGGRDLWKR: 0.601 ± 0.48.
The same measure for SKLVSYIDWVGSRILRYTCV: -0.801 ± 1.1; for SKMPP: 0.147 ± 1.1; for SKQCSKILTIKRMISLTGNE: -0.542 ± 0.49.
The same measure for SLDSIFCLTENISYQGIWCR: -1.12 ± 0.28; for SLDSNNSVFFVCMYSYRGCS: 0.359 ± 0.32.
Turning to SLEVCLIALDYGIQFLSTSA, the amyloid nucleation score came to 0.099 ± 0.18.
In turn, SLFLARRASTIARLFKRVYM came in with an amyloid nucleation score of 0.127 ± 0.63.
The substance SLFLVRKDFMFCLTSLASVR came in with an amyloid nucleation score of 2.07 ± 0.16.
Then SLGALNKFPRILIVVRYRVC, with “inactive”; and SLGHGKYMVCWGWYALGFYK, with -0.368 ± 0.28.
The same measure for SLGNVHRLL: -0.246 ± 0.79; for SLHMFLVIFSYLLVANRGKS: 0.246 ± 0.65.
Then SLHRAVYMGVKEYAILTEYG, with 0.127 ± 0.35; and SLKLLYKMKLRSGQWAHIYR, with 0.03 ± 0.43.
In the case of SLLWFKTVSLLRYNQF, the amyloid nucleation score was -0.363 ± 0.65.
The same measure for SLMCIIFLQYWNLLLTIRVT: “inactive”.
The same measure for SLMDLT: 0.02 ± 0.54.
The same measure for SLMETGYTPSRERMMHHM: -0.095 ± 0.33; for SLNDKFSLMGLICFWWWCLV: -0.184 ± 0.79.
Take SLNKNINRYFGFWYPDSPLL: the amyloid nucleation score is -1.22 ± 0.78.
SLRDARGRSYYRFNIISVML returned an amyloid nucleation score of 5.591 ± 0.033.
Consider SLRNDGFNLDPVLHALFVEL, for which the amyloid nucleation score was -0.306 ± 0.63.
The same measure for SLSFIGQIQSIITNRLNSGV: 5.876 ± 0.039; for SLSGHDLNWRFI: 0.32 ± 0.74.
The same measure for SLSLINRSVVDAWRGRDGVR: 5.107 ± 0.034; for SLSPIYDDLASVVAGTYEIK: -1.27 ± 0.75; for SLTLHLSEWGAISPN: -0.347 ± 1.
Then SLTLLGLNR, with -0.22 ± 0.22; and SLVENRVGISDVWKVSTLVG, with 0.042 ± 0.29.
SLVFVFVITKT: the amyloid nucleation score came to 5.526 ± 0.05.
The same measure for SLWKLGSLMSTFFEL: -0.758 ± 0.45; for SLWVMKCDKDTKYADRSFTL: -0.632 ± 1.1.
The same measure for SLYFGIRYENRERCLFDLHV: 2.42 ± 0.17; for SLYVKFPFMSDWLSMNHRMN: -0.64 ± 0.34.
The same measure for SMATTE: 8.377 ± 0.063; for SMFFYSFNWLQFYFRVDVHW: -0.311 ± 1.1; for SMFGRRVWLDCNQPAGGRFA: 0.118 ± 0.22.
SMMQLCV had an amyloid nucleation score of -0.043 ± 0.54.
In the case of SMNPWYIHWLI, the amyloid nucleation score was 0.003 ± 0.79.
Then SMRSIREEAVFVLIVVLRGR, with 0.261 ± 0.43.
The same measure for SMRYNTSLRWDWVDQDAHRL: 4.25 ± 0.068; for SMSCTTSASYHYLIS: 0.697 ± 0.47; for SMSSNVRTYNQFTHL: 0.716 ± 0.53.
The same measure for SMYNSHHSELVNWLNDYIWL: 2.47 ± 0.1; for SNFQYSIKGQADRLPIVLVL: -0.373 ± 1.
For SNGMRNCKVCEFLLRLYASY, the amyloid nucleation score is -1.15 ± 0.55.
The same measure for SNKHCWWLDCKHLRIMPRCD: -0.363 ± 0.37.
Then SNLFGKLYVCFERDPRRKMM, with 3.32 ± 0.12.
The same measure for SNLSLMFLLRVSIGDKKEEE: 7.555 ± 0.034; for SNSNTSEWKTG: -0.156 ± 0.79; for SNTHISYYWGTNVWLHVDIN: 6.194 ± 0.028.
In turn, SNYGCDQWWNITWFE showed an amyloid nucleation score of -0.791 ± 0.61.
Substance SPDATGYTNKVLGSRLIRRR registered an amyloid nucleation score of 1.44 ± 0.38.
SPTNIRP had an amyloid nucleation score of -0.185 ± 0.47.
Then SPYRLSPTQTLSFCFIRHLP, with “inactive”; and SQHMLEL, with -0.633 ± 1.1; and SQMYGLAYVCRQ, with 6.28 ± 0.076.
Then SQRNTLEFVLAGYKTTLVIS, with -0.549 ± 0.27; and SQVLLGQCCMNHKDLSFVWI, with 0.708 ± 0.34; and SQVQSFIFSPGLNNSKAEFT, with -0.078 ± 0.8.
On to SQYMVGPGKRRKKSYGVG, for which the amyloid nucleation score entry was “inactive”.
Take SRFCEH: the amyloid nucleation score was -0.164 ± 0.39.
Then SRKFFPVFN, with “inactive”; and SRLAY, with “inactive”.
Then SRNRFHSYLMSRCNMWQLHY, with 0.287 ± 0.33; and SRRETTYHVVMDTFPTFAIT, with 0.943 ± 0.52; and SRRGDRSRWCEMVMDVKVCS, with 5.208 ± 0.041.
Then SRRLCVTFAVFGSHKVLLS, with “inactive”; and SRRVFVKWGNWSCFVVVEDN, with 0.072 ± 0.16; and SRSVEGLKLWATNSAGHVVA, with 0.958 ± 0.3.
SRSVIFSGESSHHADWFWTV returned an amyloid nucleation score of 1.16 ± 0.68.
Then SRSYSNLWLGAHVLTRLRHD, with -0.337 ± 1.1; and SRWPLGNMCGKPVEMPEKWS, with 0.836 ± 0.55.
As for SRYKWKTDVHTKWTCHF, the amyloid nucleation score came to 1.73 ± 0.091.
Then SSDTIQYYSKQNMVRRENC, with 1.09 ± 0.52.
SSFNTDFACSWVGYMAVVSM gave an amyloid nucleation score of -0.771 ± 1.1.
Regarding SSFSHLSNAIGMPFICNCEP, the amyloid nucleation score was -0.385 ± 0.45.
The same measure for SSGLGTSVGSGILNSRDKDG: 0.434 ± 0.51; for SSGSRRLWSLRSRIAQRNMQ: 2.83 ± 0.17; for SSKTGWSHGIMVQPK: “inactive”.
Regarding SSLDNIWSTSD, the amyloid nucleation score stood at 0.337 ± 0.57.
Then SSMRRGVIRRCNYKL, with -0.992 ± 0.24; and SSMVQR, with -0.917 ± 0.55; and SSPLVNRFPEGVYMNCK, with -0.15 ± 0.49.
The same measure for SSPSYSSSSHKRTL: 2.14 ± 0.25; for SSRLAKIHSMGWFFIFLGIS: -1.22 ± 1; for SSRLALEVDKATKRVW: -0.474 ± 1.1.
The substance SSRWQFYGHF registered an amyloid nucleation score of 0.518 ± 0.26.
The same measure for SSSFLL: -0.545 ± 0.76.
Then SSSMSESAT, with “inactive”; and SSTFPPF, with -0.691 ± 0.41.
Consider SSVEAELICLWKFCTTHVCT, for which the amyloid nucleation score worked out at 0.168 ± 0.56.
As to SSVLPGVRPGWNTMWWAACL, the amyloid nucleation score amounted to 0.844 ± 0.39.
Then SSVRCTYGLNCNQRL, with 2.92 ± 0.076; and SSYDLITIKEFIKSGRVK, with -0.119 ± 0.35; and SSYMSRALSCGHSFGKVGAN, with 0.697 ± 0.81.
Then SSYRINPRKPLR, with 0.028 ± 0.63; and STAKYVYYTLLR, with 0.204 ± 0.65; and STCKLWGVQWFPGGEDRNWK, with -0.155 ± 0.42.
In turn, STGCSYHFRMIHATVTTYFG displayed an amyloid nucleation score of 3.59 ± 0.053.
Regarding STLVWSEIIF, the amyloid nucleation score stood at 0.592 ± 0.47.
Then STNIRSLMLLFCNNIEQASV, with 7.816 ± 0.038.
Then STPIAEV, with 0.6 ± 0.29.
As to STPLGPFLYF, the amyloid nucleation score was -0.961 ± 0.76.
Then STSFRASSGDKYEFDVKHLV, with 0.195 ± 0.76; and STSIPCSEHDFVCYHMVCGF, with -0.652 ± 0.37.
